Data taken from a protein production outcome set (Wang et al. 2014).

Assay: label from the status in PepcDB records

Sequence: MNNIIVGMGEALWDVLPEGKKIGGAPANFAYHVSQFGFDSRVVSAVGNDELGDEIMEVFKEKQLKNQIERVDYPTGTVQVTLDDEGVPCYEIKEGVAWDNIPFTDELKRLALNTRAVCFGSLAQRNEVSRATINRFLDTMPDIDGQLKIFDINLRQDFYTKEVLRESFKRCNILKINDEELVTISRMFGYPGIDLQDKCWILLAKYNLKMLILTCGINGSYVFTPGVVSFQETPKVPVADTVGAGDSFTAAFCASILNGKSVPEAHKLAVEVSAYVCTQSGAMPELPVILKDRLL
- protein production: not failed

Sequence: MNNKITKTSIFLTISLLLITPGFSVVAVGLLTLYSSVKLIKNGLNLNKFDIIPLITLSAYFLSNLPITIIDGDTLRYLDAGIRALLCIPMYFFIKNEISKGANLDNTLCTSTILASFGALAFAFYQFFILNMPRVDGFLFSINFGYLAAALAILSFGLSFTQTRFKYYLYLSVVAATVATILTLTRGAILTLLFVFILFFIVNVRKIKFKQTLVFTLISFLLVSVSYQFSPRIQERVDFTIFEISSIASNNIHAAASSGGRLQLWYAAVEAFKHNPIWGTTYSERESLNIELFKEGKVDEWTSTVPRGHAHSQYFEAIASNGTLGILAIFAMLILPFGVFLNDYRKTGSPISQTGYLFAFGFIIFCLTEAPLQANLIGTFYGFMVAIFYAYIAAKRAKN
- protein production: failed

Sequence: MNNLFVLLIIIALSVGSNNGSKLWPKNQLHFRNSFSRNYDVLTVHCKSKDDDLGIHTVARSYEYNFKFEDSVFGRTEFFCTLMHGVGSKYSVTFTAYKAKPAFVASTGVIKIWDALDDGIYLTDEDHDFVKIYGW
- protein production: failed

Sequence: MNNLSWSDIKRSTFNAIKKGDLKLLANMIDKYPKVIDAYNSSGYSLLHVAAEQDNVEVLEYLYNNKIDVNITRKNDDGCVTPIHGAVDKNLIGNVEWLIAHGAKIDTGNGIHATPLIGAAFNGNLEMVKLLLKNGADINAFYDIGEGINKTRITPLIAAEMEGHTETCEYLCKNGARKLDAKKYELTQIKNQHDEILQYLQRYFGNVNKTLSEVIPASNVSVNLNIMRNTENDKFITIVTTGMSDCPMDDSDEAFEERFAELIIKLPKDWLIDKNNIKDVNNYWPLGWIRRIAHIPHLYDGWIGKDIIIPNGEPPQPFAPNTKLSCIMICQPDEKELHRFTTSKGNIINLYTLIPIYKEERNMALIKGCKYLRKRMEDRGIDEILNITRENVGLSADEQ
- protein production: failed

Sequence: MNNQFSQRVSDIIVYSKEEANRLRSRHIGPEHLLLGMLRDGEGKAIEILSKLNTNLAAVKQQIEARLKTEADDMLLPDAEIPLSNDAAKILKMCILEARGMKSNIADTEHVLLAILRERNNMAASVLEANDVNYVKVLEQATLQPD
- protein production: failed

Sequence: MNNRFNGTSIKQYSTTFLLLGSMASAAHVRAADEFHPNSFNSEALKQSMIAEFALAYDDVPTAIHNYTVLAIKSNSTSIKQRALDIALEYNDLKAALDIATHWVVQEPEDVPAMFYLAHIALRAHEYKLAANTLDKILNIDPNADLEQILAGIAPESKEDRENLLETLKTSKEKENPSILVMIAGLEAQNGHLQDALINTNRALRKRPKVTGFILMKANLLIGLNDIEGAQKWYAKSSKRHRDNLDIRLAEARFLIRHNESELALKKLEDIIKTWPDAEDAKFIAGLTSIDLKQYEKAEQYLVDLRYSAKYQNDAYYYLAVNAERKQHFETAKAYYRLVDGSLYVVSRRNLVSIFEKQGNLNDALRFLTQERVNYPQHASFLYQAQAEILKKTGNKKAALRLLDEAIKNISDDPELIYAEVLLLDPFSDRDKLDRTLKQLLLIEPNSPTYLNAYAYTLALQNRRLDEARQYAELALEYAPEQASILDTLGYIAFLQNDYAAAATSLGKAYTLSNNVNIGIRFAKALYMQGNLTEFSEVLQQLKEKNANDPQLKQLDALILPTVTKKS
- protein production: failed

Sequence: MNNRKKNIQYLVYSKVIYRIGDVMFDFANNTFLAGLNPASLSLVAVYQSLESVIGVLFNLFGGVIADSFKRKKIIITTNILCGTACLVLSFLTKEQWLVYAIVLTNVILAFMSAFSSPSYKAFTKEIVKKDSISQLNSLLETTSTVIKVTVPMVAIFLYKLLGIHGVLLLDGLSFLIAALLISFILPVNDEVVIKEKVTIREIFNDLKIGFKYVYSHKSIFIITVLSALVNFFLAAYNLLLPYSNQMFGEISTGLYGTFLTAEAIGGFIGAILSGFVNKELSSMRLILFLSLSGLMLMLAPPFYIMFHNAIILALSPALFSLFLSIFNIQFFSLVQKDVDNDFLGRVFGIIFTITILFMPIGTGFFSVALNPNNSFNLFIIGSCITTLSLVFRILFKKYNIR
- protein production: failed

Sequence: MNNYVKVHQPLNVDLRTQKTQTKLYTVLERFYVEDRTFESISIKDLCEQARVSRATFYRHHKEIIQVIEVQILRTMQYFSLEFDQIILTKENIQRLILRTIQKNPLLFQVIFWSRAENIFIDVVSGEILRISLLKEVSFSDSKFMPNCFARMILSLAAEIQQSNKDYTNDQLVELIQEAARFLQK
- protein production: not failed

Sequence: MNPAITPILLGLVAGITVTFGALTYIVVGRRLGRRGQGVLNALAGGVLAYLALETGHESAAYVEQFATRETLDSFLAGLMVTSIALLGTWLLLSYVERGYSTLVRAPPGLMVSLTVASALGLHNLGEGLAIAASLIEGKVSLAILFAVGFAIHNYTEGFPIAAPLAGEKKRTGLRTIIGLSLLAGLPVVPGAMVYYLGSNLPGLAIATLYTVAAASIVYAMLHINLSALSRLGGLSSPSFWSSLFLGIALAYVTESIILIAGLH
- protein production: failed

Sequence: MNPAPERTVMQHVRPLPYEADFTGFLSNTVAPRWMEALRIQRMRTCFPHFDSGAPQHLCIITETTVRYRKPVRYSDAIVGKAWLQSARYSRWIIAFSFAFEFSGLPAFEGRQAGTFIDPLEHHHHHH
- protein production: failed

Sequence: MNPENWLLLRRVVRFGDTDAAGVMHFHQLFRWCHESWEESLESYGLNPADIFPGSRKSEVTPEVALPIIHCQADFRRPIHTGDALAMELRPERLNPNSFQVHFEFRCEEQIAAHALIRHLAINAQTRHRCALPEGIDRWLEASGVGKIGSI
- protein production: not failed

Sequence: MNPFQNSFGGHIPQDVAGKQGENVIFIVYNLTDSPDTVDKVKDVCANFSAMIRSMRNRFPDMQFSCTMGFGADAWTRLFPDKGKPKELSTFSEIKGEKYTAVSTPGDLLFHIRAKQMGLCFEFASILDEKLKGAVVSVDETHGFRYMDGKAIIGFVDGTENPAVDENPYHFAVIGEEDADFAGGSYVFVQKYIHDMVAWNALPVEQQEKVIGRHKFNDVELSDEEKPGNAHNAVTNIGDDLKIVRANMPFANTSKGEYGTYFIGYASTFSTTRRMLENMFIGSPAGNTDRLLDFSTAITGTLFFVPSYDLLGELGE
- protein production: not failed

Sequence: MNPIEFWFDFSSGYAFFAAQRIEALAAELGRTVLWRPYMLGAAFSVTGARGLSSTPLKRDYAQRDWARIARQRGLTFRPPADHPHVALAATRAFYWIEAQSPDAATAFAQRVFDLYFSDRLDTASPEAVSRLGPEVGLEPEALLAGIADPALKETVRKIGEDAVARGIFGSPFFLVDDEPFWGWDRMEMMAEWIRTGGW
- protein production: not failed

Sequence: MNPITELLDATLWIGGVPILWREIIGNVFGLFSAWAGMRRIVWAWPIGIIGNALLFTVFMGGLFHTPQNLDLYGQAGRQIMFIIVSGYGWYQWSAAKRRALTPENAVAVVPRWASTKERAGIVIAAVVGTLSFAWIFQALGSWGPWADAWIFVGSILATYGMARGWTEFWLIWIAVDIVGVPLLLTAGYYPSAVLYLVYGAFVSWGFVVWLRVQKADKARALEAQESVTV
- protein production: failed

Sequence: MNPKKLAFYLWLLLVAGGITAYFLYPDEINILFLEDLSEEYYYVALIIYFLLLSARGLTMIPSTPLLLAGVLTFDPLELFIVNMAGILSSSTIVYYFSKFLGFDSYFETKHGKYVRKIRRGLTDKELPVIVGWSFFPLVPTDLIVYVGSSLKIPLLKCLLGVFVGESVLNAFYIFSTNLILKL
- protein production: failed

Sequence: MNPLDVWYNIKMNVKKQIFKGTLYAVVAGCMWGISGIFGQLFFRDYHGSPLWITSTRLTIAGIILLAMSFSRDHKRFFDVWKSKKNMPTLFLYVFGGVFSVQYFYYVAIQLSNSATATILQYTAPVFIMLYLLIFQRQVPKPKSVLFVILAMIGVFLLITDGNIKHLSISPLALVTGLLAGVAVVIYSIIPRPLLDKYGALNMTGWGMMLAGIACNIFYPVWRIDFRIEPLSIFYVLTISIVGTALAFLLLLRAFQLISPLVVSVATATEPLTSVFLSIPLFGLKLTPLELLGIVMVIVSVILLSKSEQA
- protein production: failed

Sequence: MNPLKAGDIAPKFSLPDQDGEQVNLTDFQGQRVLVYFYPKAMTPGCTVQACGLRDNMDELKKAGVDVLGISTDKPEKLSRFAEKELLNFTLLSDEDHQVCEQFGVWGEKSFMGKTYDGIHRISFLIDADGKIEHVFDDFKTSNHHDVVLNWLKEHA
- protein production: not failed
